From patent US20080201790A1 (published 2008)

B1: recombinant MEKK4 protein expressed in E. coli, residues 1261-1597 of the full length protein (enzyme)
chain: RRSWELRTLISQTKDSASKQGPIEAIQKSVRLFEERRYREMRRKNIIGQVCDTPKSYDNVMHVGLRKVTFKWQRGNKIGEGQYGKVYTCISVDTGELMAMKEIRFQPNDHKTIKETADELKIFEGIKHPNLVRYFGVELHREEMYIFMEYCDEGTLEEVSRLGLQEHVIRLYTKQITVAINVLHEHGIVHRDIKGANIFLTSSGLIKLGDFGCSVKLKNNAQTMPGEVNSTLGTAAYMAPEVITRAKGEGHGRAADIWSLGCVVIEMVTGKRPWHEYEHNFQIMYKVGMGHKPPIPERLSPEGKAFLSHCLESDPKIRWTASQLLDHAFVKVCTDEE
notes: No tag is stated; also called truncated recombinant MEKK4
B2: MEKK4 from a Cos cell transient transfection (enzyme)
chain: MRDAIAEPVPPPALADTPAAAMEELRPAPPPQPEPDPECCPAARQECMLGESARKSMESDPEDFSDETNTETLYGTSPPSTPRQMKRLSAKHQRNSAGRPASRSNLKEKMNTPSQSPHKDLGKGVETVEEYSYKQEKKIRATLRTTERDHKKNAQCSFMLDSVAGSLPKKSIPDVDLNKPYLSLGCSNAKLPVSMPMPIARTARQTSRTDCPADRLKFFETLRLLLKLTSVSKKKDREQRGQENTAAFWFNRSNELIWLELQAWHAGRTINDQDLFLYTARQAIPDIINEILTFKVNYGSIAFSSNGAGFNGPLVEGQCRTPQETNRVGCSSYHEHLQRQRVSFEQVKRIMELLEYMEALYPSLQALQKDYERYAAKDFEDRVQALCLWLNITKDLNQKLRIMGTVLGIKNLSDIGWPVFEIPSPRPSKGYEPEDEVEDTEVELRELESGTEESDEEPTPSPRVPELRLSTDTILDSRSQGCVSRKLERLESEEDSIGWGTADCGPEASRHCLTSIYRPFVDKALKQMGLRKLILRLHKLMNGSLQRARVALVKDDRPVEFSDFPGPMWGSDYVQLSGTPPSSEQKCSAVSWEELRAMDLPSFEPAFLVLCRVLLNVIHECLKLRLEQRPAGEPSLLSIKQLVRECKEVLKGGLLMKQYYQFMLQEVLGGLEKTDCNMDAFEEDLQKMLMVYFDYMRSWIQMLQQLPQASHSLKNLLEEEWNFTKEITHYIRGGEAQAGKLFCDIAGMLLKSTGSFLESGLQESCAELWTSADDNGAADELRRSVIEISRALKELFHEARERASKALGFAKMLRKDLEIAAEFVLSASARELLDALKAKQYVKVQIPGLENLHVFVPDSLAEEKKIILQLLNAATGKDCSKDPDDVFMDAFLLLTKHGDRARDSEDGWGTWEARAVKIVPQVETVDTLRSMQVDNLLLVVMESAHLVLQRKAFQQSIEGLMTVRHEQTSSQPIIAKGLQQLKNDALELCNRISDAIDRVDHMFTLEFDAEVEESESATLQQYYREAMIQGYNFGFEYHKEVVRLMSGEFRQKIGDKYISFAQKWMNYVLTKCESGRGTRPRWATQGFDFLQAIEPAFISALPEDDFLSLQALMNECIGHVIGKPHSPVTAIHRNSPRPVKVPRCHSDPPNPHLIIPTPEGFSTRSVPSDARTHGNSVAAAAAVRAAATTAAGRPGPGGGDSVPAKPVNTAPDTRGSSVPENDRLASIAAELQFRSLSRHSSPTEERDEPAYPRSDSSGSTRRSWELRTLISQTKDSASKQGPIEAIQKSVRLFEERRYREMRRKNIIGQVCDTPKSYDNVMHVGLRKVTFKWQRGNKIGEGQYGKVYTCISVDTGELMAMKEIRFQPNDHKTIKETADELKIFEGIKHPNLVRYFGVELHREEMYIFMEYCDEGTLEEVSRLGLQEHVIRLYTKQITVAINVLHEHGIVHRDIKGANIFLTSSGLIKLGDFGCSVKLKNNAQTMPGEVNSTLGTAAYMAPEVITRAKGEGHGRAADIWSLGCVVIEMVTGKRPWHEYEHNFQIMYKVGMGHKPPIPERLSPEGKAFLSHCLESDPKIRWTASQLLDHAFVKVCTDEE
notes: also called MEKK4.2

Key:
Assay in all cases: GST fusion pull-down on glutathione-Sepharose, anti-MEKK4 immunoblot
[1] = biological target: T1, GST-Rac (GDP bound) on glutathione-Sepharose (UniProt P08515 1-218 = GST)
T1 construct: Loaded with GDP
Method: (§1) Each GST fusion protein had GTPγs or GDP bound to the Cdc42, Rac or Ras moiety of the fusion protein. Following the incubation the beads were washed extensively and the bound proteins removed in SDS-Laemmli buffer and resolved by SDS-PAGE using 10% acrylamide gels.

[2] = biological target: T2, GST fusion protein of Ha-Ras (GTPγS bound) on glutathione-Sepharose (UniProt P08515 1-218 = GST; P01112 1-189)
T2 construct: also called GST-Ras
Method: as §1

[3] = biological target: T3, GST-Cdc42 (GDP bound) on glutathione-Sepharose (UniProt P60953 1-191)
T3 construct: Loaded with GDP; not shown: glutathione S-transferase fusion partner
Method: as §1

[4] = biological target: T4, GST fusion protein of Ha-Ras (GDP bound) on glutathione-Sepharose (UniProt P08515 1-218 = GST; P01112 1-189)
T4 construct: also called GST-Ras
Method: as §1

T1 sequence (P08515 whole entry): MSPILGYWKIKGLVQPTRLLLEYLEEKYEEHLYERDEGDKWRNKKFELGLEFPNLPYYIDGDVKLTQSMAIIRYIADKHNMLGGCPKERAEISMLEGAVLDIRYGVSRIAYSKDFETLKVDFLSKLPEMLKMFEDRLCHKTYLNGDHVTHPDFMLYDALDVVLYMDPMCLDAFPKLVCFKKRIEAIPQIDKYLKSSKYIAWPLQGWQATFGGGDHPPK
T3 sequence (P60953 whole entry, the tested form may be a part): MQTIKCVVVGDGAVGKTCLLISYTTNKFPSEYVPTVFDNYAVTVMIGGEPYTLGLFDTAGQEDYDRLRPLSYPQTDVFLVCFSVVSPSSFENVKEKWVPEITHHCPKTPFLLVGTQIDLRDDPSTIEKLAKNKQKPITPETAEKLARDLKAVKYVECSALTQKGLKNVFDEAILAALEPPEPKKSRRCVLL
T4 sequence (P08515 1-218, tags or fused parts left off): as the sequence (P08515 whole entry) above
T2 sequence (P08515 1-218, tags or fused parts left off): as the sequence (P08515 whole entry) above

| Binder | percent of the MEKK4 bound in the presence of GTPγS [1] | binding result [2] | percent of the MEKK4 bound in the presence of GTPγS [3] | binding result [4] |
| --- | --- | --- | --- | --- |
| B1 | < 10% | no binding | < 10% | no binding |
| B2 | < 10% |  | < 10% |  |
